Experimental data from the supplement of paper PMC9876800.

System: peptide library, one residue held at a place counted from the S/T acceptor
Experiment: relative phosphorylation of the sub-library (ratio to the mean residue at this position); higher = residue favoured
Conditions: human
In short: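 Human or orthologue kinase constructs, purified and recombinant, were incubated under kinase-specific conditions in 384-well plates with biotinylated degenerate peptide sub-libraries. Each sub-library fixed one residue at one position around a central Ser/Thr. Incubations lasted 90 min with peptides at 50 μM and 50 μM ATP spiked with γ-32P-ATP, after which spots on streptavidin membranes were phosphorimaged and quantified by densitometry. Relative sub-library phosphorylation is a ratio to the mean residue at that position.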

Chain of ULK1, construct: aa1-649 (O75385 1-649, looked up): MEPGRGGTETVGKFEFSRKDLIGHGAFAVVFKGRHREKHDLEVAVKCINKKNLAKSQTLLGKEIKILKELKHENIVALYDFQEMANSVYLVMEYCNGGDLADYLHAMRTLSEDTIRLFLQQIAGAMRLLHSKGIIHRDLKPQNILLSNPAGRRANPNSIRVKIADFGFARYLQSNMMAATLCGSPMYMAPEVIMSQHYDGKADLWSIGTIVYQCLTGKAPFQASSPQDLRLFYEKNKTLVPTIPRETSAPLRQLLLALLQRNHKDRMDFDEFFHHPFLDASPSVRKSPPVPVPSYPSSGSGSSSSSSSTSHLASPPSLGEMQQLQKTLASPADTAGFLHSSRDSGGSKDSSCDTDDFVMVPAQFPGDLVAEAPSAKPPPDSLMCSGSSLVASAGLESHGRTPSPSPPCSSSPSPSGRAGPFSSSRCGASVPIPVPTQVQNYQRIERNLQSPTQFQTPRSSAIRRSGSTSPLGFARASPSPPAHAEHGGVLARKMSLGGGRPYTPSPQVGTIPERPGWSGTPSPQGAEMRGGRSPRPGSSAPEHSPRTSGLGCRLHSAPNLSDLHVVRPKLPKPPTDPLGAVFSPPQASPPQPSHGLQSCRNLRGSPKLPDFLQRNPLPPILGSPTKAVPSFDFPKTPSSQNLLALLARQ
Chain of RPS6KA3, construct: Full length (P51812 whole entry, looked up): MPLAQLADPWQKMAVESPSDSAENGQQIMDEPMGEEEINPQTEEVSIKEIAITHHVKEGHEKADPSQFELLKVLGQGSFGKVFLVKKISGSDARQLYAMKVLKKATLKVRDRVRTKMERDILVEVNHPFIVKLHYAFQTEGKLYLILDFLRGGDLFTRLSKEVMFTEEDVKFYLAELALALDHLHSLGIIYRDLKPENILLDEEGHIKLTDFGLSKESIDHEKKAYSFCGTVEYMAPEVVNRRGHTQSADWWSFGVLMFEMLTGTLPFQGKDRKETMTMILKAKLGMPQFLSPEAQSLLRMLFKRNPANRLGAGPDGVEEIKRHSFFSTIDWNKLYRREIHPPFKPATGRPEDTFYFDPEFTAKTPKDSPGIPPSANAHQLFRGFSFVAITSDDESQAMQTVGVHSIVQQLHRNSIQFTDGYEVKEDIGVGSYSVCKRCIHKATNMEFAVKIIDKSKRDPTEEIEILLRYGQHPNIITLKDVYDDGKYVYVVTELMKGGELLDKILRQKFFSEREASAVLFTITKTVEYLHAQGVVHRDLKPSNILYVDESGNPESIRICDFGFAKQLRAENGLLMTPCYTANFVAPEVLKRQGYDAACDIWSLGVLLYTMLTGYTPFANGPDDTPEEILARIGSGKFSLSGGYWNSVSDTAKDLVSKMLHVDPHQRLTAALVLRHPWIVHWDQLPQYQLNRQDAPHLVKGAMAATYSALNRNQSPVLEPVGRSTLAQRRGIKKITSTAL
Chain of AAK1, construct: aa27-365 (Q2M2I8 27-365, looked up): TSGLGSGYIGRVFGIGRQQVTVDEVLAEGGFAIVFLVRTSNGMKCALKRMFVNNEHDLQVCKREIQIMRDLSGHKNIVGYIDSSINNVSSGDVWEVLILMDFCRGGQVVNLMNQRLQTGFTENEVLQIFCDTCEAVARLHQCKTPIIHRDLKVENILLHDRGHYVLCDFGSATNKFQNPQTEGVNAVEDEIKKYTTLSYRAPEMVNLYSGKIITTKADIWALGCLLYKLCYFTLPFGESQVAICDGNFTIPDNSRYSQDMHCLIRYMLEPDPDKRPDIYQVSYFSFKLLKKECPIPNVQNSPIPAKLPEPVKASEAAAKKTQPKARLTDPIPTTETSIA

AAK1, construct: aa27-365 (from UniProt Q2M2I8)
relative phosphorylation
Conditions | at +1 | at +2 | at +3 | at +4 | at -1 | at -2 | at -3 | at -4 | at -5
A fixed | 0.53 | 1.27 | 0.989 | 1.1 | 0.654 | 0.915 | 1.9 | 1.2 | 0.482
D fixed | 0.174 | 0.939 | 0.688 | 0.662 | 0.274 | 1.37 | 0.462 | 0.565 | 0.273
E fixed | 0.167 | 0.89 | 0.631 | 0.778 | 0.248 | 1.08 | 0.629 | 0.951 | 0.26
F fixed | 0.219 | 0.826 | 0.731 | 0.89 | 0.926 | 0.571 | 0.828 | 0.883 | 0.722
G fixed | 12.3 | 1.27 | 1.57 | 1.19 | 1.2 | 0.48 | 0.87 | 1.09 | 0.416
H fixed | 0.272 | 1.05 | 1.15 | 0.951 | 1.17 | 0.963 | 0.676 | 0.874 | 0.564
I fixed | 0.173 | 0.629 | 0.659 | 0.706 | 0.739 | 0.642 | 1.02 | 1.06 | 2.64
K fixed | 0.33 | 0.98 | 1.26 | 1.41 | 2.09 | 0.998 | 0.879 | 1.38 | 0.445
L fixed | 0.222 | 0.703 | 0.831 | 0.783 | 1.11 | 0.968 | 0.896 | 1.26 | 1.69
M fixed | 0.21 | 0.817 | 0.743 | 0.789 | 0.941 | 1.98 | 1.33 | 1.18 | 1.47
N fixed | 0.289 | 1.42 | 1.25 | 1.01 | 0.737 | 1.37 | 0.989 | 0.73 | 0.468
P fixed | 0.787 | 0.896 | 1.16 | 1.07 | 1.93 | 0.385 | 1.84 | 0.908 | 1.22
Q fixed | 0.235 | 1.31 | 1.06 | 1.08 | 0.675 | 2.58 | 1.18 | 1.07 | 0.952
R fixed | 0.423 | 1.32 | 1.53 | 1.58 | 1.57 | 0.943 | 0.987 | 1.22 | 1.62
V fixed | 0.182 | 0.922 | 1.04 | 0.718 | 0.666 | 0.578 | 1.09 | 1.05 | 1.62
W fixed | 0.276 | 0.973 | 0.817 | 1.4 | 0.748 | 0.492 | 0.722 | 0.686 | 0.535
Y fixed | 0.243 | 0.78 | 0.905 | 0.886 | 1.32 | 0.678 | 0.699 | 0.908 | 1.62
pThr fixed | 0.209 | 0.696 | 0.57 | 0.427 | 0.206 | 0.356 | 0.514 | 0.564 | 0.342
pTyr fixed | 0.171 | 0.697 | 0.61 | 0.46 | 0.303 | 0.826 | 0.466 | 0.576 | 1.04

RPS6KA3, construct: Full length (from UniProt P51812)
relative phosphorylation
Conditions | at +1 | at +2 | at +3 | at +4 | at -1 | at -2 | at -3 | at -4 | at -5
A fixed | 0.876 | 1.48 | 0.988 | 1.03 | 0.917 | 0.555 | 0.652 | 1.08 | 0.961
D fixed | 0.617 | 1.08 | 1.48 | 1.39 | 0.636 | 0.658 | 0.452 | 0.62 | 0.501
E fixed | 0.97 | 0.833 | 1.58 | 1.24 | 0.466 | 0.617 | 0.402 | 0.76 | 0.4
F fixed | 0.848 | 0.548 | 0.78 | 0.679 | 0.709 | 0.568 | 0.327 | 0.682 | 0.703
G fixed | 0.704 | 1.17 | 1.21 | 1.17 | 1.13 | 0.85 | 0.555 | 1.15 | 1.01
H fixed | 1.16 | 1.34 | 1.14 | 0.914 | 1.01 | 0.979 | 0.566 | 0.911 | 0.892
I fixed | 1.2 | 0.77 | 0.666 | 0.826 | 0.652 | 0.615 | 0.373 | 0.834 | 0.762
K fixed | 1.16 | 1.08 | 0.972 | 1.17 | 1.49 | 2.6 | 1.7 | 1.8 | 2.04
L fixed | 0.927 | 0.732 | 0.905 | 0.652 | 0.906 | 0.976 | 0.37 | 0.811 | 0.944
M fixed | 1.1 | 0.727 | 0.722 | 0.828 | 0.933 | 0.614 | 0.291 | 0.99 | 0.736
N fixed | 0.957 | 0.985 | 0.827 | 0.902 | 1.02 | 0.708 | 0.464 | 0.855 | 0.719
P fixed | 0.432 | 0.677 | 0.997 | 1.6 | 2.36 | 0.457 | 0.785 | 0.863 | 0.951
Q fixed | 1.22 | 0.716 | 0.808 | 0.895 | 0.935 | 0.962 | 0.641 | 1.01 | 0.836
R fixed | 1.34 | 1.59 | 1.11 | 1.26 | 1.39 | 4.29 | 8.12 | 2.46 | 3.13
V fixed | 1.45 | 1.07 | 0.839 | 0.941 | 0.752 | 0.591 | 0.393 | 0.698 | 0.852
W fixed | 0.887 | 0.858 | 0.998 | 0.738 | 0.628 | 0.361 | 0.408 | 0.725 | 0.807
Y fixed | 1.15 | 1.34 | 0.979 | 0.762 | 1.06 | 0.601 | 0.498 | 0.753 | 0.748
pThr fixed | 1.89 | 1.03 | 1.64 | 2.38 | 0.318 | 0.319 | 0.343 | 0.719 | 0.648
pTyr fixed | 1.7 | 1.14 | 2.08 | 1.47 | 0.543 | 0.3 | 0.306 | 0.448 | 0.668

ULK1, construct: aa1-649 (from UniProt O75385)
relative phosphorylation
Conditions | at +1 | at +2 | at +3 | at +4 | at -1 | at -2 | at -3 | at -4 | at -5
A fixed | 0.56 | 0.645 | 0.867 | 0.899 | 1.17 | 1.22 | 0.964 | 1.16 | 1.15
D fixed | 0.265 | 0.292 | 0.853 | 0.841 | 1.13 | 1.22 | 0.659 | 1.21 | 1.61
E fixed | 0.424 | 0.307 | 0.834 | 0.944 | 1.19 | 1.19 | 0.572 | 0.905 | 1.02
F fixed | 1.74 | 1.12 | 0.842 | 0.803 | 0.477 | 1.08 | 1.11 | 0.716 | 0.797
G fixed | 0.359 | 0.409 | 1.04 | 1.11 | 0.79 | 0.916 | 0.884 | 1.3 | 1.18
H fixed | 0.854 | 1.87 | 1.13 | 1.19 | 0.857 | 1.14 | 0.682 | 1.01 | 1.15
I fixed | 1.53 | 1.26 | 0.869 | 0.738 | 0.543 | 0.753 | 0.674 | 0.678 | 0.572
K fixed | 0.615 | 0.849 | 1.48 | 1.32 | 1.83 | 0.608 | 0.404 | 0.832 | 1.09
L fixed | 1.13 | 0.94 | 0.901 | 0.836 | 0.723 | 0.799 | 1.56 | 0.821 | 0.733
M fixed | 2.01 | 1.23 | 0.906 | 0.848 | 1.19 | 1.09 | 4.03 | 1.07 | 0.786
N fixed | 0.563 | 0.816 | 0.891 | 1.01 | 1.09 | 0.947 | 1.1 | 1.2 | 1.42
P fixed | 0.234 | 0.211 | 0.927 | 1.32 | 0.397 | 0.439 | 0.698 | 1.27 | 0.811
Q fixed | 1.26 | 0.753 | 1.24 | 1.17 | 1.52 | 0.991 | 0.837 | 1.02 | 0.957
R fixed | 0.725 | 0.989 | 1.2 | 0.993 | 1.57 | 0.545 | 0.447 | 0.844 | 1.1
V fixed | 1.47 | 1.02 | 0.866 | 0.77 | 0.903 | 0.913 | 0.574 | 0.659 | 0.661
W fixed | 1.39 | 1.65 | 1.1 | 1.2 | 0.82 | 1.93 | 1.2 | 1.6 | 1.18
Y fixed | 1.87 | 2.64 | 1.04 | 1 | 0.794 | 1.22 | 0.599 | 0.716 | 0.786
pThr fixed | 0.885 | 0.413 | 0.718 | 1.13 | 0.568 | 0.67 | 0.704 | 0.846 | 0.762
pTyr fixed | 1.14 | 0.618 | 0.648 | 0.615 | 0.99 | 1.12 | 0.642 | 0.672 | 0.664
